These results are taken from the supplement of paper PMC12042874.

± gives the uncertainty stated by the source.

The data set is described as follows: amyloid nucleation score (Sup35N fusion, yeast selection) (log enrichment); library NNK1; higher = more nucleation; inactive = no reads after selection. Put shortly:
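On medium lacking adenine and uracil, psi-negative yeast expressing peptides of 20 random codons fused to Sup35N were grown 7 days at 30°C after a 24-hour induction with 100 μM copper sulfate. Illumina sequencing of input and output plasmid inserts gave the reads, and sequences under 100 input reads were excluded. The nucleation score is the DiMSum log enrichment of output over input reads, centred on the mode score of non-aggregating sequences.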
LFNKNGYNSETRFLFKLGFD had an amyloid nucleation score of 1.02 ± 0.56. In the case of FLGLNQLNFWFGAS it was 7.845 ± 0.045. In the case of GSLSVAATSFTVMYRVKLVF, the amyloid nucleation score turned out to be 0.085 ± 0.58. As for RVLRQMKSIC, the figure is -0.44 ± 0.83; as for KSYYGSLNLAMSTSLYIQTM, 0.769 ± 0.34; as for FFFKAFDLATTSLGRYNMCN, -0.66 ± 0.52. As for IFNML, the figure is -0.083 ± 0.93. In the case of KGLLTGSCVDSS it was -0.015 ± 0.51; in that of LFRGFWSERSTVSMLFRSRR, -0.124 ± 0.83; in that of YCYYYVNTCVV, 2.07 ± 0.53.

SLLCWKLAVHQLGMIGNIYS yielded an amyloid nucleation score of -0.452 ± 0.47. As for SSVLVLHYRTSG, the figure is 2.58 ± 0.09; as for ILREQNSLDTSRFYRGRSLV, 0.187 ± 0.65. In turn, RLYLNDNTLSCF returned an amyloid nucleation score of -0.001 ± 0.22. In the case of GIWSNCKYVFSGIMSSYMVS it was 0.739 ± 0.16; in that of NMLAQSRSSVIAPLRRVWPV, 0.889 ± 0.77; in that of ICWNHTTVGFGMIMVVYYL, 1.95 ± 0.091. In the case of LAHLCINIVSKCSNSWTIGT it was 0.55 ± 0.57. In the case of GCLRVSDTIRGMPRQSLDWA it was 0.445 ± 0.28. For DYGAKDHFPIAITKEVMSLN, the amyloid nucleation score is -0.394 ± 1.2.

In the case of YNCMEYSDARHKSSTVRLHY, the amyloid nucleation score was -0.253 ± 0.62. As for GSYFGKGSVK, the figure is 0.563 ± 0.97. As for CVNKPLNGHLANMSWRGY, the figure is 1.15 ± 0.57; as for GVGWISKPNHLDTFITTS, 0.738 ± 0.35; as for LMASDVT, 0.127 ± 0.43. In the case of TVRGSTRSKLSGASWQCWRA it was -0.023 ± 0.21.

The substance VLCRINGVRS displayed an amyloid nucleation score of 1.1 ± 0.97. In the case of VTWVWFGVLVCFRRDGTLTY it was 0.676 ± 0.85.

Consider NEAMN, for which the amyloid nucleation score was -0.21 ± 0.37. VQHRIISLALVYNTYNFSFS showed an amyloid nucleation score of 8.018 ± 0.074. In the case of YLFMMAIRGAKTLVS it was “inactive”; in that of YCGKR, 1.12 ± 0.58. As for AFWFMCWGMTRTRYV, the figure is 2.73 ± 0.11. Turning to CVPSVRNSVMW, the amyloid nucleation score is -0.181 ± 0.88.

On to ECYGIR, for which the amyloid nucleation score came to 0.893 ± 0.26. As for LDRVSWSDRKSNGQ, the figure is 1.44 ± 0.41; as for MYAFASSKYEHIS, 0.53 ± 0.32. Substance ILRAFWESGHTGGVWATVSS returned an amyloid nucleation score of -1.19 ± 0.77.

The substance LAWTSRDWRKFEYIMGIWGI displayed an amyloid nucleation score of -1.01 ± 2.4. In the case of VMGFHT it was -0.402 ± 1.9; in that of MSSPMRRDAKL, 2.67 ± 0.14; in that of TRWWGPLQFVYFPD, -0.17 ± 0.68.

Substance YNSRGDCRTLVKRGMGNFCA came in with an amyloid nucleation score of 0.191 ± 0.32. In the case of PTRYRKLKRQAKATYIHSNP it was -0.552 ± 1.6.

MVDMLVKMGYRLLGRYISMR: the amyloid nucleation score amounted to 0.942 ± 0.69.

NLFSGNLPRFDFAIQGAFVN came in with an amyloid nucleation score of -0.447 ± 0.48. As for IFSPVSCDMVTDGMGTSCWY, the figure is 0.144 ± 0.9. IARFHTDSYHYRY: the amyloid nucleation score is -0.08 ± 1.1. As for GVQWKLIFIGQCAVAVAWLA, the figure is -2.05 ± 1.8.

Substance TCGLHQPFLGLFVSSSSIMT came in with an amyloid nucleation score of 0.175 ± 0.41.

Turning to TLSVFREWSCLGMLLGYHNL, the amyloid nucleation score result is “inactive”. With CPTEGGLVWSYWSLS, the amyloid nucleation score amounted to 1.09 ± 0.83. As for HRLKTYIMVSFIYRADAVGI, the figure is 4.89 ± 0.068; as for NDRVNRNTFSYPWQVAFFRQ, 4.94 ± 0.064.

The substance QAKLPLTIDCMKCGTVGTGR displayed an amyloid nucleation score of -0.16 ± 0.34. In the case of VTMSDLATHNYREMNSLFSF it was 0.091 ± 0.28. As for YVWLMH, the figure is 3.7 ± 0.11; as for RGGMF, -0.252 ± 0.67. In the case of LGVAFQRYVCICEVVSLSRG it was 0.523 ± 0.32; in that of VSDFGLGHGKQWRCRRQISL, 0.685 ± 0.79; in that of YRHTVIVY, 1.13 ± 0.21. In turn, ISNMETGHLEYSLRLAPKYC had an amyloid nucleation score of -0.658 ± 0.82. In the case of TYRTWLYLPLQCAIYLGVSL it was -0.436 ± 0.64. In the case of VFRGSWCRTNNVIPGLFNKA it was 0.488 ± 0.4; in that of IYFLR, -0.103 ± 0.42. As for LQERWMAMGGGGQGVVWGFT, the figure is 0.305 ± 0.79.

The substance YCSSVEVGVYLNVLICFSGL registered an amyloid nucleation score of 3.18 ± 0.062.

As for VELLGQYVICPSTRCRIVEN, the amyloid nucleation score was 0.254 ± 0.47.

Regarding TSFWLSVKSTNPFNRRQFSD, the amyloid nucleation score was 0.436 ± 0.35. As for FFMLFRCGF, the figure is 0.333 ± 0.87; as for FKVVF, -0.909 ± 1.9; as for NRKEFKCSRWHRGNWYVNAR, -0.378 ± 0.79. In the case of LGFACLSIILSRKSKMWDML it was 2.13 ± 0.11; in that of VLLFVVLHLNLSVHILQNFQ, -0.396 ± 0.54; in that of TLMRCVFLLYYPCGYIKSDL, 0.551 ± 0.31. As for RTFTGRDGCVKDVCTPHFEM, the figure is 0.632 ± 0.9; as for LFQCASWM, -0.024 ± 0.29; as for KLIYLMGPIPWVLRSCWQVF, 0.208 ± 0.37.

Take TRMGEL: the amyloid nucleation score is -0.089 ± 0.76. Regarding VNNRRRVSVHDLRDATPGTF, the amyloid nucleation score stood at 0.099 ± 0.53. As for VNVCYTMMEFVAGVYSGLLR, the figure is 0.288 ± 0.29; as for PYFDTEHERVKDH, 0.398 ± 0.62; as for NCYSRDRSWGLDVVRYVVWW, -0.329 ± 1.6. Take HFLVMITRL: the amyloid nucleation score stood at 5.15 ± 0.091. For RRVLRTSKNSSLMDFYATIE, the amyloid nucleation score stood at 0.299 ± 0.79. As for SDCVVVGHGVVRIYMDGVWP, the figure is 5.84 ± 0.065; as for SKSGLGYTGHLLVREREVVV, 0.474 ± 1; as for FKVIYARFVTIWVAVRRAFL, 0.051 ± 0.69.

In the case of YCKLDLPVTIEVKCSRGRMS, the amyloid nucleation score amounted to 5.17 ± 0.08.

Regarding LVDCMALLNRYTSRIMDNC, the amyloid nucleation score is -1.07 ± 0.8. As for PIKEVPNTSRLLFSVCMKWH, the figure is 0.504 ± 0.74; as for LNGWIVEGLNNADLTRRRWV, 0.235 ± 0.6. In the case of PKFSLMQLTPGLGTQ it was 3.13 ± 0.13. In the case of GSADSFRGYGCFILVKATWY it was 0.717 ± 0.46; in that of RDTHRDNRNLPSHLSSVYRK, -1.35 ± 2.4; in that of WISHSVSLFVSVLGMWMSRD, -2.09 ± 2.4. The substance QLAERTGVHCSQFTKWFFKM returned an amyloid nucleation score of 1.72 ± 0.38.

Consider YREGHHPGWTMVKMMRTQVP, for which the amyloid nucleation score came out at 0.26 ± 0.6. In the case of DMCLWARG it was 0.732 ± 1; in that of FWANH, “inactive”. In the case of SGGDFQCTRHMSVDLGLPVS it was 0.428 ± 0.64. As for SHSLHLESSASSLTR, the figure is -1 ± 0.51.

NRTYVGWEVILPKVWNSSVY registered an amyloid nucleation score of -0.663 ± 0.61. As for PQLRLLPGVLGNPGNGHSRI, the figure is 4.59 ± 0.098; as for HVNLLNRTLCK, 0.151 ± 0.9; as for NTYWVSSAS, 0.078 ± 0.64. As for DTLHSNCCGSWPYDSSKRNV, the figure is 0.95 ± 0.33; as for RRYEFKRLGSMSDGVTLRSM, -0.759 ± 0.5. In the case of VCRLGSNPVQWVGPGSSVFC it was 1.23 ± 0.71; in that of LWGWGFSSEANPIGGRGILN, 0.277 ± 0.53. In turn, FGCTKANT registered an amyloid nucleation score of -0.657 ± 1.1. Turning to LFMLSIHFGVHILSRLW, the amyloid nucleation score was 1.57 ± 0.16. As to IGRRDWH, the amyloid nucleation score came out at 0.925 ± 0.49. As for HFSNIDNARNCSDSYWRYGI, the figure is 0.168 ± 0.3; as for IIWRDNNTPYD, 1.96 ± 0.7; as for WNLATMVADRSPRNKLWTRP, 0.397 ± 0.97. In the case of TFSFFDRVLSLFLN it was -0.179 ± 0.44; in that of TTFVSASSMRRYRCLSLGAC, 0.659 ± 0.85; in that of WRRRDRVLQCWL, “inactive”.

For RLCVVRDRFIGPIRRAFLHP, the amyloid nucleation score result was “inactive”. As for MWAIFSLWVCSR, the figure is 1.35 ± 0.41; as for LVFKLLVLDHKSFGLLMVDS, -0.355 ± 0.63; as for DKPFCFILNYNSVYDCVMSV, 0.331 ± 1.2. As for GLYKYYRSLILSLVSFNFS, the figure is 1.18 ± 0.16; as for TGVTHC, “inactive”; as for GPCNTRSCV, -0.037 ± 0.43. Substance QYHLWFMCAAVDRMKNGPFG yielded an amyloid nucleation score of 0.049 ± 0.36. As for DLYGRLLNWNTPYKRRWKNR, the figure is -0.491 ± 0.46; as for CRCAPYSNGKTGIHARLFNT, 0.794 ± 1.1; as for WSYGSEPM, “inactive”. As for YYGQII, the figure is 1.54 ± 0.38; as for NFSESFLTVNPQTTDVLKLH, -1.18 ± 1.5. In the case of FRGFVVGGGT it was -0.664 ± 0.61; in that of WRFLLWSFHSEAYLIVYS, -0.773 ± 0.49. In turn, LGCYTLESLGEYDNSNNWLL yielded an amyloid nucleation score of 0.932 ± 0.69. In the case of LQYGGQVISLNNR it was 1.97 ± 0.72. Regarding FFLMIQSVT, the amyloid nucleation score was 0.84 ± 0.47. In the case of IDMIVGNLN it was “inactive”. In the case of YKTEHNRSIDLLGISSSSFL it was -0.322 ± 1; in that of ACANLKSGIFKRFFTSCSGT, -0.959 ± 0.65. In the case of MFAVMNGAVLSTPLDNVCRV it was -0.581 ± 1.6.
